In the test the target is Death receptor 4 (DR4) on primary human pancreatic stellate cells (human) (UniProt O00220). As to the kind of experiment: cell-based or functional assay.

The source of these data is patent publication US20190119394A1.

In turn, “mapatumumab (human anti-DR4 antibody, Creative Biolabs)” displayed a caspase-3/7 activity (apoptosis marker), culture-activated PSCs, 10^3 ng/mL of 1.27 fold.
